Experimental data taken from patent US20110176995A1 (Chugai, published 2011).

T1: human GPR49 protein (human, UniProt O75473 22-907)
T1 construct: also called LGR5; GPR49 molecule
T1 sequence: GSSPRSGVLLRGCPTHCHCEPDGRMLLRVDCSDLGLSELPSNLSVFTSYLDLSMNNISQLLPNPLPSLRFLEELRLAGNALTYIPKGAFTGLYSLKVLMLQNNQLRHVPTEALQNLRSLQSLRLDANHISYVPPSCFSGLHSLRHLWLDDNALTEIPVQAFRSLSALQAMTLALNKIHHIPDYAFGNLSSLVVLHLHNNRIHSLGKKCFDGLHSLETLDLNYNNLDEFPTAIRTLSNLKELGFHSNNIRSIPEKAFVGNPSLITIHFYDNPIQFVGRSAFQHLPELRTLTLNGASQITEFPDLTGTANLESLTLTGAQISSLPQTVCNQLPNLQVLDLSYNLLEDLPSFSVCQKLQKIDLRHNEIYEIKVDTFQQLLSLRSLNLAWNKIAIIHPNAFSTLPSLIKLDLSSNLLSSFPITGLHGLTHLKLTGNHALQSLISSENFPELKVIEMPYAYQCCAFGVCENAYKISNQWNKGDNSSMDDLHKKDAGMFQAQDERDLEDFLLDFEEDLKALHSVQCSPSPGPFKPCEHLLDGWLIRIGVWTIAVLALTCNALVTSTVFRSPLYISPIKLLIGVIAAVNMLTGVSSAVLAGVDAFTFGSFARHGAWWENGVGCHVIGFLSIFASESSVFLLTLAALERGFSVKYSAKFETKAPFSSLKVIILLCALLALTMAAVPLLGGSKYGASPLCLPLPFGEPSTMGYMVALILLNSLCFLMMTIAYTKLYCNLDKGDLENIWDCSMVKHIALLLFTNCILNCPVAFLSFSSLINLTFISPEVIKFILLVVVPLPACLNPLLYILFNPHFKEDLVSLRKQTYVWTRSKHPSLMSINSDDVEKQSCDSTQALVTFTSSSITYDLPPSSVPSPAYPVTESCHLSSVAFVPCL

T2: mouse GPR49 (mouse, UniProt Q9Z1P4 22-907, limits assumed)
T2 construct: Expressed transiently in 293T cells; the cell lysate was analysed by Western blotting; also called mouse (M) GPR49
T2 sequence (looked up): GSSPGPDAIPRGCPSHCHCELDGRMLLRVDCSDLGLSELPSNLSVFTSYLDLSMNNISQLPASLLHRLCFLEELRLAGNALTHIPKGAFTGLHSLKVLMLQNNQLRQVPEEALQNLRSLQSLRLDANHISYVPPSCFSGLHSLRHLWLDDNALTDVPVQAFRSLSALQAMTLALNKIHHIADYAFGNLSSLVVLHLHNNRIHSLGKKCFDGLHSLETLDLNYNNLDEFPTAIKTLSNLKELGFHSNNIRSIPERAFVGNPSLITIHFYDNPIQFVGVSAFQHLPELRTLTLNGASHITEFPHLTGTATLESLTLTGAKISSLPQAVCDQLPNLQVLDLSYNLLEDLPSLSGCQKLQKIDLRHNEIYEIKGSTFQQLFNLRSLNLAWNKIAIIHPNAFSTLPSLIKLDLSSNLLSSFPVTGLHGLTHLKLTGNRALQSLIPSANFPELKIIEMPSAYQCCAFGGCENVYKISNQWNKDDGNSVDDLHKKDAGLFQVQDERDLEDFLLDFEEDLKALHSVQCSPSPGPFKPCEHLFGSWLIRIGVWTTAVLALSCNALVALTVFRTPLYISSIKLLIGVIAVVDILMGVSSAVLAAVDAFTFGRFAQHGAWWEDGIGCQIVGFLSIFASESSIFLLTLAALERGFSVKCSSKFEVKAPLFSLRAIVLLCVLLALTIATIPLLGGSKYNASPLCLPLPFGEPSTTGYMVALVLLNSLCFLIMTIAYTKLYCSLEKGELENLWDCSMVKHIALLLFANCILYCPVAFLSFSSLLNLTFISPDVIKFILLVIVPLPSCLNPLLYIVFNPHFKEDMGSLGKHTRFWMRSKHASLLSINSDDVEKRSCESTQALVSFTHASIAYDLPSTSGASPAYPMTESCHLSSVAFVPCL

T3: HA-GPR49 (full-length human GPR49 with an HA-tag inserted at the N-terminus) (human, UniProt O75473 22-907)
T3 construct: Expressed in DG44 cells (line 2B10) and, inducibly with doxycycline, in 293FlpIn T-Rex cells (lines B2, B4); On whole cells in flow cytometry and cytotoxicity assays; as cell lysate in Western blotting and immunoprecipitation; also called human GPR49/DG44 cells (2B10); HA-GPR49-expressing DG44 cell line 2B10; not shown: HA-tag inserted at the N-terminus of GPR49
T3 sequence: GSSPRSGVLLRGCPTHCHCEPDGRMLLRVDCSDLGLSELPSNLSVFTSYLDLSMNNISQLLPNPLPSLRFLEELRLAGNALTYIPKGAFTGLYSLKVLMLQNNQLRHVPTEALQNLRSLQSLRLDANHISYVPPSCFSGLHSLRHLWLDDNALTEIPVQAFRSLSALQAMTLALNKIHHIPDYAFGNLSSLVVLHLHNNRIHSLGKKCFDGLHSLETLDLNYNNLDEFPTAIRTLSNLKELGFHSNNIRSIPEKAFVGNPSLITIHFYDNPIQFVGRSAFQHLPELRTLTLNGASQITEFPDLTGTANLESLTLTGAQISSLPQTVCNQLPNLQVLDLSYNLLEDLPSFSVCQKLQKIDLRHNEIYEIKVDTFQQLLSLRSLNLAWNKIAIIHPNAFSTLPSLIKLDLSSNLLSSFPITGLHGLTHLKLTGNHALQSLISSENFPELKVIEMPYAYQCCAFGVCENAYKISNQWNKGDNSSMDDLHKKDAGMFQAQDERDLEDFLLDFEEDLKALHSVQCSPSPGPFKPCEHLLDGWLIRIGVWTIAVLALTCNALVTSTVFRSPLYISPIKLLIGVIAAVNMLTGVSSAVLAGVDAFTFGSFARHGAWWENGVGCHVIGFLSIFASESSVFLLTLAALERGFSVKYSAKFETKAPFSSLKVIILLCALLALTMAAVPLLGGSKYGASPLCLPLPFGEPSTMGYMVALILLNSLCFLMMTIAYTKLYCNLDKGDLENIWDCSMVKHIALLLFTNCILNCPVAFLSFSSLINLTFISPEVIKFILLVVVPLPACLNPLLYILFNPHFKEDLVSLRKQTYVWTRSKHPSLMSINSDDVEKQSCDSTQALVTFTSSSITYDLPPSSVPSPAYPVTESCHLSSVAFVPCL


How the values were obtained:
human GPR49 protein [1] = target: T1, human GPR49 protein; assay: Western blotting of LoVo cell lysate
mouse GPR49 = target: T2, mouse GPR49; assay: Western blotting
[2] = target: T3, HA-GPR49 (full-length human GPR49 with …); assay: flow cytometry, hybridoma supernatant on 2B10 cells against parental DG44
Experimental: The binding to the human GPR49/DG44 cells (2B 10) was evaluated by flow cytometry using the obtained hybridomas. The cell lines expressing human GPR49 suspended in FACS buffer (2% FBS/PBS/0.05% NaN₃) were diluted to 1×10⁶ cells/mL with FACS buffer, and then aliquoted at 50 μL/well into a Falcon 353910 round-bottom 96-well plate. Hybridoma culture supernatant diluted to a suitable concentration was added to the wells containing the cells and reacted for 60 minutes on ice. Then, the cells were washed once with FACS buffer. Goat F(ab′)₂ fragment anti-mouse IgG(H+ L)-FITC (Beckman Coulter) was added to the wells containing the cells as a secondary antibody, and reacted for 30 minutes on ice. After reaction, the supernatant was removed by centrifugation, and then the cells suspended in 100 μL of FACS buffer were subjected to flow cytometry. A FACS Calibur (Becton Dickinson) was used for flow cytometry. The viable cell population was gated with a forward scatter-side scatter dot blot, an FL1 histogram was made of the cells contained in the population, and binding activity thereof was evaluated.
When the hybridoma supernatants were reacted with 2B 10 in which GPR49 is induced and expressed in DG44 cells and with the parental cell line DG44 respectively, hybridomas that specifically reacted with GPR49-expressing cells were obtained. The hybridomas from these wells were made into single clones by the limiting dilution method. The isotype of each antibody was analyzed using an IsoStrip™ mouse monoclonal antibody isotyping kit (Roche Diagnostics). As a result, 2J18-1N and 2J18-3 were IgM, and 2L7-8, 2L9-3, 2L10-19, 2L13-3, 2L15-12, 2L16-15, 2L18-15, 2L33-6, 2L34-5, 2L36-12, 2T4E-6, 2T9E1#14, 2T15E-2, 2T42E-4, 2T54-2, 2T65-3, 2T37-16, 2U1E-1, 2U2E-2, and 2U4E-11 were IgG1. Culturing of the hybridomas made into single clones was scaled up, and then the antibodies were purified from the culture supernatant using a protein G column in accordance with the manual. The IgM antibodies were purified using a protein L column in accordance with the manual. The purified antibodies were quantified by DC Protein Assay or such.

human GPR49 protein [3] = target: T1, human GPR49 protein; assay: flow cytometry, 10 ug/mL antibody on OVSAHO, Alexander and NUGC-4 cells
Experimental: The reactivity of 2T15E-2 antibody to human cancer cell lines were analyzed by flow cytometry. Human cancer cell lines suspended in a FACS buffer (2% FBS/PBS/0.05% NaN₃) were diluted to 1×10⁶ cells/mL with the FACS buffer, and the solutions were then dispensed into a Falcon 353910 round-bottom 96-well plate at 50 μL/well. 2T15E-2 antibody diluted to a concentration of 10 μg/mL was added, and this was reacted for 60 minutes on ice. Next, the cells were washed once with the FACS buffer. After adding Goat F(ab′)₂ fragment anti-mouse IgG (Fcγ)-FITC (Beckman Coulter) as a secondary antibody to the wells containing the cells, this was reacted for 30 minutes on ice. After the reaction, the supernatant was removed by centrifugation, and then the cells were suspended in 100 μL of FACS buffer containing propidium iodide (PI) and then subjected to flow cytometry. A FACS Calibur (Becton Dickinson) was used for the flow cytometry. The viable cell population was gated with a forward scatter-side scatter dot blot, an FL1 histogram was made of the cells contained in the population, and binding activity thereof was evaluated.
The peaks indicated with a solid line indicate the reactivity with cancer cell lines, and the shaded regions represent the peaks obtained when the reactions are carried out without antibodies. […]

[4] = target: T3, HA-GPR49 (full-length human GPR49 with …); assay: immunoprecipitation from 2B10 cell lysate, Western blot detection
Experimental: To confirm the presence of the 40-kDa and 60-kDa protein bands detected in Western blotting, immunoprecipitation experiments were carried out using GPR49 monoclonal antibodies. Cell lysate prepared by solubilizing HA-GPR49-expressing DG44 cell line 2B10 in NP40 lysis buffer (0.5% NP40, 50 mM Tris-HCl (pH7.5), 150 mM NaCl, protease inhibitor complete mini (Roche)) was used as the sample for immunoprecipitation. The amount of protein included in the cell lysate was quantified by DC Protein Assay using BSA as a standard. A solution containing 2 μg of antibody was added to 500 μL of cell lysate containing 100 μg of protein, and this was reacted at 4° C. for one hour. Additionally, 20 μL of Protein A/G Plus agarose (Santa Cruz) was added and this was reacted overnight. Agarose beads were centrifugated at 1,000×g for one minute, washed twice with 1 mL of PBS, and then antigens bound to the antibodies were eluted by adding 50 μL of 2×SDS-sample buffer and warming at 60° C. for 30 minutes. After centrifuging at 1,000×g for one minutes, 15 μL of the supernatant obtained was subjected to SDS-PAGE. […] As is seen in the lanes for the samples immunoprecipitated using 2L13-3 and 2L36-12, a 40-kDa band and a 60-kDa band in addition to the 100-kDa band could surely be detected using 2U1E-1 and 2U2E-2, respectively. […]

Binder	binding result (human GPR49 protein [1])	binding result (mouse GPR49)	binding result [2]	binding result (human GPR49 protein [3])	binding result [4]
anti-GPR49 monoclonal antibody 2U2E-2 (antibody, mouse IgG1, V domains shown, Mouse IgG1 from hybridoma; light chain amplified with a kappa primer) VH: EVKLVESGGDLVKPGGSLKLSCAASGFIFSTYAMSWVRQIPEKRLEWVASISPDGNTFYPDSLKGRFTISRDNVRNILYLQMSSLRSEDTAMYYCAVTGTFAYWGQGTLVTVSG VL: DVLMTQTPLSLPVSLGDQASISCRSSQNILHSDGNTYLEWFLQKPGQSPKLLIFKISNRFPGVPDRFSGSGSGTDFTLKISRVEAEDLGVYYCFQSSHVPYTFGGGTKLEIK	binds	binds	binds		
anti-GPR49 monoclonal antibody 2T15E-2 (antibody, mouse IgG1, V domains shown, Mouse IgG1 from hybridoma; light chain amplified with a kappa primer) VH: EVQLVESGGGLVKPGGSLKISCAASGFTSSNYAMSWVRQTPEKRLEWVATISSGGGYTYYPDSEKGRFAISRDNAKNTLYLQMSGLRSEDTAMYYCATQLYYRSHYYSMDYWGQGSSVTVSS VL: QIVLTQSPAIMSASPGEKVTMTCSASSSISYMHWYQQKSGTSPKRWIYDTSKLASGVPARFSGSGSGTSYSLTISSMEAEDAATYYCQQWHSKPATFGAGTKLELK			binds	binds	
anti-GPR49 monoclonal antibody 2J18-1N (antibody, mouse IgM, V domains shown, Mouse IgM from hybridoma; light chain amplified with a kappa primer) VH: EVQLQQSGPELVKPGDSVKMSCKASGYTFTDYYMDWVKQSHGKSLEWIGYIYPNNGGTSYNQKFKGKATLTVDKSSSTAYMELHSLTSEDSAVYYCARPYYSNSFAYWGQGTLVTVSA VL: QIVLTQSPAIMSASPGEKVTMTCRASSSVSSSYLHWYQQKPGSSPKLWIYSTSNLASGVPARFSGSGSGTSYSLTISSVEAEDAATYYCQQYDSSPFTFGTGTKLEIK			binds		
anti-GPR49 monoclonal antibody 2L13-3 (antibody, mouse IgG1, V domains shown, Mouse IgG1 from hybridoma; light chain amplified with a kappa primer) VH: QVQLQQSGAELVRPGTSVKMSCKAAGYTFTNSWIGWVKQRPGHGLEWIGDIYPGGDYTNYNEKFKGKATLTADTSSSTAYMQLSSLTSEDAAIYYCTRGDGYFDYWGQGTTLTVSS VL: DIVMTQSHKFMSTSVGDRVSITCKASQDVSIDVAWYQQRPGQSPKLLIYSASYRYTGVPDRFTGSGSGTDFTFTVSSVQAEDLAVYYCQQHYSTPPTFGGGTKLEIK					binds
anti-GPR49 monoclonal antibody 2L36-12 (antibody, mouse IgG1, V domains shown, Mouse IgG1 from hybridoma; light chain amplified with a kappa primer) VH: QVQLQQSGAELVRPGTSVKVSCKASGYDFTNYLIEWVNQRPGQGLEWIGVINPGSGGTNYNEKFKGKATLTADKSSSTAYMQLSSLTSDDSAVYLCARYSPYGNYFDYWGQGTTLTVSS VL: DIVMTQSHKFMSTSVGDRVSITCRASQDVGTAVAWYQQKPGQSPKLLIYWASTRHTGVPDRFTGSGSGTDFTLTINNVQSEDLADYFCQQYSSYPPTFGGGTKLEIK			binds		
anti-GPR49 monoclonal antibody 2U1E-1 (antibody, mouse IgG1, V domains shown, Mouse IgG1 from hybridoma; light chain amplified with a kappa primer) VH: QVQLQQPGAELVEPGASVKLSCKASGYTFTNYYMYWVKQRPGQGLEWIGGINPNNGGTNFNEKFKSKATLTVDKSSSTAYMQLSSLTSEDSAVYYCTGIYYRYNWHFGVWGAGTTVTVSS VL: DVLMTQTPLSLPVSLGDQASISCRSSQTIVHSNGNTYLEWYLQKPGQSPKLLIYKVSNRFSGVPDRFSGSGSGTDFTLKIYRVEAEDLGIYYCFQGSHVPWTFGGGTKLEIK	binds	binds	binds		
